Assay results: PMC10256215, “IFITM1 enhances nonenveloped viral RNA replication by facilitating cholesterol transport to the Golgi” (PLOS Pathogens, 2023)

Columns and labels:
Assay in all cases: two-hybrid; mammalian two-hybrid (Checkmate, Promega) in Vero cells; pACT and pBIND fusions in both orientations with the pG5luc reporter; firefly/Renilla luciferase at 48 h as fold of the control with empty pACT or pBIND
Details in all cases: partners not purified
[1] = target: T1, PI4KB (mammalian two-hybrid fusion) (UniProt Q9UBF8 1-816)
T1 construct: PI4KB, Golgi protein; two-hybrid construct not described; Two-hybrid construct not described in the methods; also called phosphatidylinositol 4-kinase IIIβ; source: Vero cells, transfected, mammalian two-hybrid fusion
T1 sequence (Q9UBF8 whole entry, the tested form may be a part): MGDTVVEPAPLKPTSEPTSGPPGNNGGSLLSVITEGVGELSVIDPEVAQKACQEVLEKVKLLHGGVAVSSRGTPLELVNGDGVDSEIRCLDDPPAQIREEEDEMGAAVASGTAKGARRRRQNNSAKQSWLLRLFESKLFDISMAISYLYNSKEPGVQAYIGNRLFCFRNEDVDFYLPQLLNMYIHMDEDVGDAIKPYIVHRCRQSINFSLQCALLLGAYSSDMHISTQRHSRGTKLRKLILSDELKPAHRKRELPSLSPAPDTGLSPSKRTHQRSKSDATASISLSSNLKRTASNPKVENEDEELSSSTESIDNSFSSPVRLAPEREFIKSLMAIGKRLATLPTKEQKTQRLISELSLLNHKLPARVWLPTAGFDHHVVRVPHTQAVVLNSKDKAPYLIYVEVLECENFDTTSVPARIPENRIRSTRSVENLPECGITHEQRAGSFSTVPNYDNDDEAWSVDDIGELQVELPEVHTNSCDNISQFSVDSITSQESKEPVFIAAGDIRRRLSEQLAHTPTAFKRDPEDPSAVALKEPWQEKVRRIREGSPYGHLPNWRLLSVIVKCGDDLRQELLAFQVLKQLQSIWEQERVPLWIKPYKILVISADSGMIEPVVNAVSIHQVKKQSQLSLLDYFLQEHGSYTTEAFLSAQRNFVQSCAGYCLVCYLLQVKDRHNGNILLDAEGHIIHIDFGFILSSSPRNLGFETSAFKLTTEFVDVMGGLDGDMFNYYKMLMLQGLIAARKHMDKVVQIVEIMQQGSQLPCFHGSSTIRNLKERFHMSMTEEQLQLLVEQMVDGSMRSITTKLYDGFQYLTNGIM

[2] = target: T2, OSBP (mammalian two-hybrid fusion) (UniProt P22059 1-807)
T2 construct: two-hybrid construct not described; Two-hybrid construct not described in the methods; source: Vero cells, transfected, mammalian two-hybrid fusion
T2 sequence (looked up): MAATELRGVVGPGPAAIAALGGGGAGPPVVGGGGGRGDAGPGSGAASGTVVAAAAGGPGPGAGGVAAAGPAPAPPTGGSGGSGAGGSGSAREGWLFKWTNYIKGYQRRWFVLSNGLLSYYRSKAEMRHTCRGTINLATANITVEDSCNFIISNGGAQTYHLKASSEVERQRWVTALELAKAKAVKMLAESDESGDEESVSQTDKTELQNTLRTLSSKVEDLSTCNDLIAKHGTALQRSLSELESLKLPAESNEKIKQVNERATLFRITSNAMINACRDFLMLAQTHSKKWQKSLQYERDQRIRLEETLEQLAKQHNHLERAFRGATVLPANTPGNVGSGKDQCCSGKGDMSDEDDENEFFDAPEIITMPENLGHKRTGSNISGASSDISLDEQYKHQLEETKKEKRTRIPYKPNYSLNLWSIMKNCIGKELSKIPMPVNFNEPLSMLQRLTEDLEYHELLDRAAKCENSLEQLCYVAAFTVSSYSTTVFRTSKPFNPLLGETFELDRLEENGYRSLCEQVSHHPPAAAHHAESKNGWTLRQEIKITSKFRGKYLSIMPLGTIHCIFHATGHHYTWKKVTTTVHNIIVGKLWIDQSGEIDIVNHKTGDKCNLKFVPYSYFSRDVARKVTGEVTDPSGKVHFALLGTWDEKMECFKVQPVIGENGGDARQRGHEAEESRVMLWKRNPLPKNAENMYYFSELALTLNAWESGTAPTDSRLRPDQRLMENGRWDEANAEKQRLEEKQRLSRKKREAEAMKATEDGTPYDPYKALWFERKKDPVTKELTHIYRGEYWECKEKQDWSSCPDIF

[3] = target: T3, ACBD3 (mammalian two-hybrid fusion) (UniProt Q9H3P7 1-528)
T3 construct: ACBD3, Golgi protein; two-hybrid construct not described; Two-hybrid construct not described in the methods; source: Vero cells, transfected, mammalian two-hybrid fusion
T3 sequence (looked up): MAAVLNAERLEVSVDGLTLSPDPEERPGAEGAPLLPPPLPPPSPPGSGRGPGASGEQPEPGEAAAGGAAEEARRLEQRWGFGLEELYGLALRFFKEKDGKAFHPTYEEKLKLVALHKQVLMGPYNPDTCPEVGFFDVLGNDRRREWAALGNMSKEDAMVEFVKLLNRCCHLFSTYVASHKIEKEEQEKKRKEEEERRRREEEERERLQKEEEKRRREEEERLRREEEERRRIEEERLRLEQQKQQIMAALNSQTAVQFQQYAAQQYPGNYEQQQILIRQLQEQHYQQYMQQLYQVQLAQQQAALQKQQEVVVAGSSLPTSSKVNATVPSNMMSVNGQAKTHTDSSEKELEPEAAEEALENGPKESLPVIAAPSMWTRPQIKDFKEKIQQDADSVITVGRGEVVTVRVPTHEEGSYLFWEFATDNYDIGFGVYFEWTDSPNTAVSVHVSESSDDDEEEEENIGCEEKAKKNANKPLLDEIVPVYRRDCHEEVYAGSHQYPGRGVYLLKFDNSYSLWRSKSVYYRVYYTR

B1: IFITM1 (mammalian two-hybrid fusion) (natural protein, human, UniProt P13164 1-125, looked up)
chain: MHKEEHEVAVLGPPPSTILPRSTVINIHSETSVPDHVVWSLFNTLFLNWCCLGFIAFAYSVKSRDRKMVGDVTGAQAYASTAKCLNIWALILGILMTIGFILLLVFGSVTVYHIMLQIIQEKRGY
notes: IFITM1, human; coding region amplified by PCR from an OriGene cDNA clone; one fusion partner at a time; also called interferon-induced transmembrane protein 1; pACT-IFITM1; source: Vero cells, transfected, mammalian two-hybrid fusion
- fold increase in luciferase activity [1]: 8.2 fold
- fold increase in luciferase activity [2]: 7.8 fold
- fold increase in luciferase activity [3]: 84.2 fold
